Data as given in the supplement of paper PMC9170038.

Tested on: MS2 coat protein
Assay: apparent KD of MS2 coat protein; designed switch direction (-1 OFF switch, 1 ON switch): -1; higher = weaker reporter binding
Outline: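 Transcription of designed RNA switches on Illumina chips was done by stalled E. coli RNA polymerase. SNAP-549-labelled MS2 coat protein was then titrated in doubling steps from 0.7 or 1.5 nM to 3 µM, with steps of 0.8–1.5 h at the lowest and 10–20 min at the highest concentration. The per-design median over clusters of curve-fitted normalised fluorescence is reported as apparent KD.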

[1] = Eterna round: R95, input ligand: microRNA oligo, concentration not stated
[2] = Eterna round: R95, input ligand: FMN 200 uM
[3] = Eterna round: R95, input ligand: none
[4] = input ligand: microRNA oligo, concentration not stated

Row | Sequence | apparent KD of MS2 coat protein (input ligand: FMN 200 uM) | apparent KD of MS2 coat protein (input ligand: none) | apparent KD of MS2 coat protein [1] | also measured
1 | UAAACAUGGAUAUAACAGUACAUGAGGAUCACCCAUGUUAAUAUGAUAGAUUAUAACAAGUUUUUUUGUCGUCUUAA [Tabletop] (Eterna round: R97, puzzle: Sensor, turn-off variant 1) | 85 nM | 88 nM |  | 
2 | GAGACAGAAGGAUAUACGUCCGCGAGUGCGAUGCGCUUGGGACAUGAGGAUCACCCAUGUAGAAGGUCUAACCC [Eternabot (L1) Solution 89] (Eterna round: R97, puzzle: Exclusion 2) | 318 nM | 251 nM |  | 
3 | CAGCGUGAAGGAUAUACAUGAGGAUCACCCAUGUGCAACUCUCCAACUCGGACUCCCUGUAGAAGGUCGGCUUU [Eternabot (L2) Solution 88] (Eterna round: R97, puzzle: Exclusion 3) | 26.9 nM | 28 nM |  | 
4 | CUUUUGUGAGGAUAUCAGUAGUAAAUAAAUUAAAUUACUACUGAGAAGGCACAUGAGGAUCACCCAUGUUCCUC [salish99_ex3_r3_081] (puzzle: Exclusion 4) |  |  | 39.3 nM | 
5 | AUACAACAUGAGGAUCACCCAUGUGAGGAUAUGCGAUAUAUCAUCAUCAUAAUCAUAAGCAGAAGGCACAACAU [Another One] (puzzle: Exclusion 1) |  |  | 35.6 nM | apparent KD of MS2 coat protein [2]: 35.7 nM; apparent KD of MS2 coat protein [3]: 34 nM
6 | UAUUAUCAAGCAAGAUCCCACAUGAGGAUCACCCAUGUGCUCGUCUUAUUUCUGGCCUUAUUGGUCUCUCGUCUAAU [JR_STOV1_v2_Sub095] (Eterna round: R97, puzzle: Sensor, turn-off variant 1) | 25.8 nM | 26.7 nM |  | 
7 | ACAUGACUGCUAGGAUAUAGAUGACAUGAGGAUCACCCAUGUUGUCUCAUGUUUAUGGAAACGGACUAGAAGGAGUAGUAUAUG [Ex NG2 #15] (Eterna round: R96, puzzle: Exclusion NG 2) | 20.6 nM | 21.3 nM |  | apparent KD of MS2 coat protein [4]: 14.5 nM
8 | AAACUACUAGGAUAUACAACGGUGUCCUAACUACUAAGAAAACAUGAGGAUCACCCAUGUAGAAGGAGUAGUGA [Lauslabe] (Eterna round: R96, puzzle: Exclusion 2) |  |  |  | apparent KD of MS2 coat protein [4]: 28.6 nM
9 | CAGGUGUUAGGAUAUCGGAGAUUGAGGCAGACGGGAAUAUUCGAGAAGGAACAUGAGGAUCACCCAUGUAGUAG [JR_Exclu4_Sub036] (puzzle: Exclusion 4) |  |  | 23.9 nM | 
10 | AUUGAGCUAGGAUAUACAUGAGGAUCACCCAUGUAGCAAAAUAGCUAUACAUGAUCGGGUAGAAGGAGCGCGAG [Tirivela] (puzzle: Exclusion 3) |  |  | 14.3 nM | 
11 | GUAUAUAGUGUGAGGAUAUGCUGGUCCUUGGAUCAGCAGAAGGCACAUGAGGAUCACCCAUGUAGUUUAUUAUG [Mat - Exclusion 4 - JL Mod - D8] (puzzle: Brourd's mod of Exclusion 4) |  |  | 20 nM | 
12 | CGCUGGACAGGAUAUGUUCUUGAGCACUUGAGGAUCACCCAAGUCAUCAAGAACUCAGGCACAGAAGGGUUUAUGG [salish99_ex5_r4_016] (Eterna round: R97, puzzle: Exclusion 5) | 24.6 nM | 13.4 nM |  | 
13 | GAUCAACAUGAGGAUCACCCAUGUGAGGAUAUGAUACUAUGUACUUCGGUACAUAGUAUCAGAAGGCAUGUGGA [Ex1-3: 76] (puzzle: Exclusion 1) |  |  | 162 nM | 
14 | ACAAAGCUAGGAUAUGUGGCGGAUAACAUGAGGAUCACCCAUGUGAGCUCACAGAUCCGAGCAGAAGGAGCGAUUA [EX5 A.10] (Eterna round: R97, puzzle: Exclusion 5) | 15.3 nM | 14.6 nM |  | 
15 | GGUGCUGGCGCGUCGGUGUUGGUGCAAUAAGCUUGUGAAACAUGAGGAUCACCCAUGUCCUCAUAAGCUCGUCUUGU [salish99_TOv2_r2_087] (puzzle: Sensor v3, turn-off variant 2) |  |  | 283 nM | apparent KD of MS2 coat protein [2]: 14.4 nM; apparent KD of MS2 coat protein [3]: 12.8 nM
16 | UACAUGAGGAUCACCCAUGUUUUGUCGUGUUUGGUACCCGUUUAGGAUAUCGUGUUAUUGGACCGCGAGAAGGAGAGUAUCUUU [Excl-NG3-LRO07] (Eterna round: R96, puzzle: Exclusion NG 3) | 31.8 nM | 33.3 nM |  | apparent KD of MS2 coat protein [4]: 25.3 nM
17 | GCAGCAUAGAUUACUAGCUGUUACAUGAGGAUCACCCAUGUUCAGGAUAUGGUCUGGAUUACAGGCCAGAAGGGAACAAGCUGC [finally!] (Eterna round: R96, puzzle: Exclusion NG 3) | 14.2 nM | 16.6 nM |  | apparent KD of MS2 coat protein [4]: 12.9 nM
18 | CUGUAGUCAGGAUAUACAUGAGGAUCACCCAUGUAAAAUUUUAAUUUAAUUUGAAGGUGUAGAAGGGACCAGUC [Ex3 #26] (Eterna round: R97, puzzle: Exclusion 3) | 30.1 nM | 38.5 nM |  | 
19 | CUUAGCCUAAAAUCACGCAAGCUUUUUGCUUGUCUUAAGACAUGAGGAUCACCCAUGUCCGGGCUGAACUUAUGGAA [Zarebe] (puzzle: Sensor v3, turn-off variant 2) |  |  | 20.4 nM | apparent KD of MS2 coat protein [2]: 17.5 nM; apparent KD of MS2 coat protein [3]: 17.1 nM
20 | AGUACUAUGCGAGCUGACUUGCGUAGUGCAGCAGGUGUUACAUGAGGAUCACCCAUGUCCUCAUUUGCUCGUCUUAU [Mat - Sensor v3 - Turn-off var 2 - D6] (puzzle: Sensor v3, turn-off variant 2) |  |  | 193 nM | apparent KD of MS2 coat protein [2]: 271 nM; apparent KD of MS2 coat protein [3]: 247 nM
21 | GAUCCACAUGAGGAUCACCCAUGUCAGGAUAUGAUACUAUGUACUUCGGUACAUAGUAUCAGAAGGGACAGAUC [Ex1-3: 2] (puzzle: Exclusion 1) |  |  | 162 nM | 
22 | AGCUGUGGCCGAGGAUAUCUGAACUCAAUAACCGAAAUAUAAUCGGACAUGAGGAUCACCCAUGUAGAGAAGGCGGUCUCAGCA [Eli eng2 - 080] (Eterna round: R96, puzzle: Exclusion NG 2) |  |  |  | apparent KD of MS2 coat protein [4]: 24.2 nM
23 | ACUUCGUCAGGAUAUCGAGUGACCAAGUACACUGGCUUGGCUGAGAAGGGACAUGAGGAUCACCCAUGUGGGAG [Eternabot (L1) Solution 52] (Eterna round: R97, puzzle: Exclusion 4) | 356 nM | 187 nM |  | 
24 | UCCCGUCUAUGGAGAUUUUACAUGAGGAUCACCCAUGUUGGGACCGCUCUUUGCUUGUCUUCUCCUACUUCGUGUGU [mod-Gracier #4] (Eterna round: R97, puzzle: Sensor, turn-off variant 1) | 82.7 nM | 87.2 nM |  | 
25 | AACAUGGCAGGAUAUUGAAAAUUGCACUUGAGGAUCACCCAAGUGGUUCUGCGGGCGAAGUAAGAAGGGCCUAAAA [Xeraabi] (Eterna round: R97, puzzle: Exclusion 5) | 232 nM | 27.3 nM |  | 
26 | GGUUGACAUGAGGAUCACCCAUGUGAGGAUAUGCGAGAGAAAAAAGUGAGGAAGAAAAGUAGAAGGCGCUGACG [salish99-ex1_r3_001] (puzzle: Exclusion 1) |  |  | 49 nM | apparent KD of MS2 coat protein [2]: 59.9 nM; apparent KD of MS2 coat protein [3]: 57.1 nM
27 | GAUCCACAUGAGGAUCACCCAUGUUAGGAUAUGACAACGACUCGCACUACGUUGUUGCUCAGAAGGAGCACCCA [Eternabot (Original) Solution 10] (Eterna round: R97, puzzle: Exclusion 1) | 19.1 nM | 18.3 nM |  | 
